{"source": "paper PMC5473249", "binders": {"B1": {"name": "IgE-Fc, P01854 105-427 (domain or fragment)", "chain": "DIVASRDFTPPTVKILQSSCDGGGHFPPTIQLLCLVSGYTPGTIQITWLEDGQVMDVDLSTASTTQEGELASTQSELTLSQKHWLSDRTYTCQVTYQGHTFEDSTKKCADSNPRGVSAYLSRPSPFDLFIRKSPTITCLVVDLAPSKGTVQLTWSRASGKPVNHSTRKEEKQRNGTLTVTSTLPVGTRDWIEGETYQCRVTHPHLPRALMRSTTKTSGPRAAPEVYAFATPEWPGSRDKRTLACLIQNFMPEDISVQWLHNEVQLPDARHSTTQPRKTKGSGFFVFSRLEVTRAEWEQKDEFICRAVHEAASPSQTVQRAVSVNPGK", "modifications": "not checked"}}, "target": "FabXol3 (omalizumab-derived Fab with three point mutations)", "assay": "SPR; FabXol3, FabXol or intact omalizumab amine-coupled at low density; IgE-Fc flowed over, 2-fold dilutions from 100 nM; 20 mM HEPES pH 7.4, 150 mM NaCl, 0.005% P-20; 25 °C; monophasic kinetics at low concentrations", "data": [{"binder": "B1", "values": [{"measurement": "Kd", "result": 1, "unit": "nM"}, {"measurement": "koff", "result": 0.0008, "unit": "s⁻¹"}, {"measurement": "kon", "result": "1.2e+06", "unit": "M⁻¹ s⁻¹"}]}]}
